Results: patent publication US11099176B2 (Duke University, priority 2015, dated 2021)

What was measured:
[1] = Thermal stability by SYPRO Orange thermal melt in a Roche LightCycler; format: physicochemical; details: for Thermostability apoTm: ligand-free protein, SYPRO Orange, Roche LightCycler
Protocol: The lactate-binding properties of these proteins were determined experimentally (Table 3). These experiments comprise four successive steps: • 1. Synthetic gene construction. The amino acid sequence of the homology leads are back translated into DNA sequences. […] The predicted gene sequences are assembled de novo from synthetic oligonucleotides. • 2. Heterologous protein expression of the homologues in E. coli.

[2] = Lactate-mediated fluorescence emission response of fluorescent conjugates (cysteine and fluorophore scan); format: biochemical; set-up: key to Response Acrylodan Shape / Response Badan Shape / Response Badan Intensity: m, monochromatic; d, dichromatic (i.e. spectral shape changes); 0, no change
Description: Semi-synthetic FRSs can be engineered by site-specifically attaching thiol-reactive, environmentally sensitive fluorophores that respond to ligand-mediated conformational changes. Identification of FRS candidates that can be used for sensing applications comprises three steps: • 1. Cysteine scan. Mutant lactate-binding proteins containing single cysteines are constructed for site-specific attachment of thiol-reactive fluorophores. […] Candidate positions fall into three classes: endosteric, replacing a residue that contacts the ligand directly; peristeric, located at the rim of the binding site; allosteric (Marvin et al., 1997, Proc Natl Acad Sci USA, 94, 4366-71; Marvin, 1998, J Am Chem Soc, 120, 7-11), located outside the binding site at sites that undergo local structural changes in concert with the hinge-bending motion. • 2. Fluorophore screening. Thiol-reactive, environmentally sensitive fluorophores are attached to each cysteine mutant prepared in step 1. • 3. Evaluation of the lactate-mediated change of all the fluorescent conjugates prepared in step 2. Responses to ligand binding in which there is both a change in fluorescence emission intensity and spectral shape are essential for chemometric applications, because such changes enable ratiometric measurements. Changes in spectral shape typically are accompanied by a shift in the wavelength of the emission intensity maxima. Three classes of fluorescent responses are possible: • i. No response. • ii. Monochromatic response (emission intensity increases or decreases without a change in spectral shape) • iii. […] Hypsochromatic: emission intensity shifts to shorter wavelengths upon binding ligand (“blue shift”). • ii. Bathochromatic: emission intensity shifts to longer wavelengths upon binding ligand (“red shift”). • 4.
We constructed seventeen single cysteine mutants in msLacBP6, exploring one endosteric, fourteen peristeric, and two allosteric positions. Two dominant electronic transitions give rise to fluorescence emission in these fluorophores with maxima in the blue (<500 nm) and green (>500 nm) regions, respectively.

[3] = Acrylodan conjugate of msLacBP6 cysteine mutant, response to lactate
[4] = Badan conjugate of msLacBP6 cysteine mutant, response to lactate

B1: msLacBP6: lactate-binding protein from Marinobacter sp. (SEQ ID NO: 6, 20, 120) (protein)
chain: MTDITCKIETKGSARRRGFLKTLAVSAAISATLLASSVQAATTWKIQSVWDAGTVGYDLFKEWCDGMEEKTGGELKFTCFPAKAVAADNNGLFDAVRNGVLQGMNPFTLYWSGKIPASVFLSSYPAGPDQPHQWDTMFYSLGMLEKTREIYKKFGLFYVGPIQHDANIIHSKQPINSLDDLKGLKMRLPGGMVAEVFAKFGVAAVSLPGSDIFPALEKGTIDAADYVGPAVNWELGFSQVTKYILMGPPGIMSVYQPVDLMDLTVNLRAWNALDPKLQQIVEDEVRIYSQKHYLAIQKRNIEAMKKFEAAGTTVTRLSQEDLQEFRRAAIPIWYSWANKDEDAREIFDMQLEYMMNDTVGYITEDDIKGMN
Question: Which mid-point denaturation temperature [1] does the source give for B1 here?
Answer: 70 °C

Question: And the “Thermostability apoTm” value [1]?
Answer: 70 °C

B2: tsLacBP7: lactate-binding protein from Thermus sp. (SEQ ID NO: 7, 21, 121) (protein)
chain: MQAPRFRWRIQSAWDAGTVGYTLFQRFAERVKELTDGQIEIQTFPAGAVVGTFDMFDAVKTGVLDGMHPFTLYWAGRMPVTAFLSSYPLGLDRPDQWETWYYALGGLDLARRAFEEQGLFYVGPVQHDYNLIHSKKPIKSFEDFKGVKLRVPGGMIADVFSAAGAATVLLPGGEVYPALERGVIDAADFVGPAVNYNLGFHQVTKYIIMGPPETPAIHQPVDLADITLNLSRWRAVPKNLQERFEAAVHEWSWIHYAGIQKANLETWPKYKAAGVQIIRLTTVDVRKFRRVAIPIWFKWAKQDKYAREAFASQLEYMKALGYVTDADVRGLSL
modifications: tsLacBP7 (with signal peptide replaced with M)
Question: Which results are given for B2?
Answer: Thermostability apoTm [1]: >100 °C; fluorescence response to lactate ([2]; in words): strong dichromatic responses

B3: adLacBP9: protein from Anaeromyxobacter dehalogenans (SEQ ID NO: 9, 23, 123) (protein)
chain: MKKTTSRSQPDTAPKASRRSFLKKAALGAAGVAAGAAAPTIHVAQAPITLRFQSTWPQKDIFHEFALDYAKKVNEMSGGRLKIEVLAAGSVVKAFDLLDAVSKGTLDGGHGVVAYWYGKNTALALWGSGPAFGMDPNMVLAWHHYGGGRQLLEEIYRSLNLDVVSLMYGPMPTQPLGWFKQKPIAKPDDMKGLKFRTVGLSIDIFNGLGAAVNALPGAEIVPAMDRGLLDAAEFNNASSDRVLGFPDVSKICMLQSFHQCSEQFEILFNGKRFQALPADLKSIISIAAQAASADMSWKAIDRYSSDYFEMRDKQGVKFYSTRPEILKRQLEIWDQVMEKRAAENPTFKKVLESQRRFAQRAARWQNDTNVDFKMAYNHFFGGKKKAT
Question: For B3, which “Thermostability apoTm” value [1] is on record?
Answer: 48 °C

B4: pgLacBP10: protein from Polymorphum gilvum (SEQ ID NO: 10, 24, 124) (protein)
chain: MTEISRRGLLAGSVFGGVALAAPTVARAQEAVEWRMQALWDAGTTPFEFEKKFVERVGELTEGRFKITLYSAGQIVPANQAFDAVRSGAFEMMKTFDGYEAGKIPAFAFTSTIPFGFPQSDQYEAWFYELGGLDLAREAYAKGGLFYIAPTVYGEEPMHSTVKIESIADMAGKKGRFVGLASAVMADLGVAVSPLATAEVYTALEKGLIDFADRGDLTANYEAGLGEVAKFIILPGVHQPTTATSYVANQAAYQKLPDGFKAALAVAAREISGSLRQHILVQDMEVLTKYKDQGVEVVRLDAADIAAARAKAVESWEKATKGDELATRVLKGQVDFMTSLGLL
Question: Which “Thermostability apoTm” value [1] does the source give for B4 here?
Answer: 49 °C

B5: psLacBP11: protein from Pseudomonas stuztzeri (SEQ ID NO: 11, 25, 125) (protein)
chain: MKRRHLFGAAALLATLALAGCKDEQSQAPNQQAAGEPAKTYHWKMVTAWPKNYPGLGTSAERLAERVNAMSGGRLTIKVYAAGELVPALEVFDAVSRGTAELGHGASYYWKGKVPTAQFFTSVPFGLSTSEMNAWLSKGGGQAFWDEAYAPFGVKPLVIGNTGMQMGGWYNKEINSLTDLKGLKIRMPGLGGEVLSRLGATTVNLPGGEVFTALQTGAIDATDWVSPYNDLAFGLHKAARYYYYPGWQEPQAVLELLINQKAFDSLPADLQAIVTEASLAASRDMHDDYVYNNALALEQLKQQGTELKRFPDEVLAAMREQSDLILGELAAQSELNGRIWASMKAFQAQVEPMHEISEKELYNWR
Question: For B5, which “Thermostability apoTm” value [1] is on record?
Answer: 60 °C

B6: rsLacBP12: protein from Rhodobacter sphaeroides (SEQ ID NO: 12, 26, 126) (protein)
chain: MTAFEKKAAYSRRSFLRTGALAGGAAAGSVLAAPAVLAQAPLVMKMQTSWPASDIWMDFAREYVTRVEEMSGGRIKVDLLPAGAVVGAFQVMDAVHDGVIDASHSVSAYWYGKSKAASFFGTGPVFGGSATTMLGWFYQGGGQDLYRELTQDILGMNIVGFYGFPMPAQPFGWFKTEVNGVADIQGFKYRTVGLAADLLQAMGMSVAQLPGGEIVPAMERGVIDAFEFNNPSSDMRFGAQDVAKNYYLSSYHQASESFEYTFNRDFYEDLDPDLQAILKYAVEAASTSNTALALRQYSADLATLAAENGVAVHRTPKDILSGQLEAWDKLIVDLEADEFFKKVLDSQRAWVEQVSYYELMNAADLGLAYEHHFPGKLKL
modifications: Rhodobacter sphaeroides
Question: For B6, which “Thermostability apoTm” value [1] is on record?
Answer: 48 °C

B7: fsLacBP13: protein from Flexistipes sinusarabici (SEQ ID NO: 13, 27, 127) (protein, listed as Flexistipes sinusarabici)
chain: MGMMKKLLYSLLIILLVASAGFTAEKKIRWKLAMTWGPTLHPLSDTAEHMAEIVKELSDGNFVINIDASNVHKAPFGIFDMVKLGQYEMGHTASYYYKGKNIAFLPLTTMPFGMTAPEQYAWFYYGGGLELMQEAYTKHGMLAFPGGNTGNQMGGWFTKEINSLDDLKGLKMRIPGFAGQIMSKLGVTVTNIPPGELYTALERGTVDAVEWTGPGMDINMGFHKIAKYYYTGWHEPGSEVEFLINEKEYNKLPEKYKKILKIAMKTAAYDMYIQSYEMNAEAWQQMKEKYPDIKVKVFPEEVLKEMKTAYDNLVASYEKESPMFKKIMESKRAYLDKVRDWTHISDYLYLKSTSESNLN
Question: Which “Thermostability apoTm” value [1] does the source give for B7 here?
Answer: 46 °C

B8: ttLacBP1: lactate-binding protein from Thermus thermophilus, seed sequence (SEQ ID NO: 1, 15, 115) (protein, listed as Thermus thermophilus)
chain: MKRVSRRAFLRRLGVGVAATAAFSPLAVAQARRYRWRIQTAWDAGTVGYSLFQKFTERVKELTDGQLEVQPFPAGAVVGTFDMFDAVKTGVLDGMNPFTLYWAGRMPVTAFLSSYALGLDRPDQWETWFYSLGGLDIARRAFAEQGLFYVGPVQHDLNIIHSKKPIRRFEDFKGVKLRVPGGMIAEVFAAAGASTVLLPGGEVYPALERGVIDAADFVGPAVNYNLGFHQVAKYIIMGPPETPAIHQPVDLMDFTINLNRWRSLPKPLQERFIAAVHEYSWIHYAGIQKANLEAWPKYRQAGVEVIRLSNEDVRKFRRLAIPIWFKWAKMDKYSREAFASQLEYMKGIGYVTDEELKGLSL
Question: For B8, which “Thermostability apoTm” value [1] is on record?
Answer: >100 °C

B9: Y187C (conjugate)
chain: MATTWKIQSVWDAGTVGYDLFKEWCDGMEEKTGGELKFTCFPAKAVAADNNGLFDAVRNGVLQGMNPFTLYWSGKIPASVFLSSYPAGPDQPHQWDTMFYSLGMLEKTREIYKKFGLFYVGPIQHDANIIHSKQPINSLDDLKGLKMRLPGGMVAEVFAKFGVAAVSLPGSDIFPALEKGTIDAADCVGPAVNWELGFSQVTKYILMGPPGIMSVYQPVDLMDLTVNLRAWNALDPKLQQIVEDEVRIYSQKHYLAIQKRNIEAMKKFEAAGTTVTRLSQEDLQEFRRAAIPIWYSWANKDEDAREIFDMQLEYMMNDTVGYITEDDIKGMN
modifications: conjugated fluorophore; msLacBP6 (with signal peptide replaced with M)
Question: For B9, which “Response Acrylodan Intensity” value [2, 3] is on record?
Answer: +

Question: What about the “Response Acrylodan Shape” value [2, 3] of the same molecule?
Answer: d^f

Question: And the “Response Badan Intensity” value [2, 4]?
Answer: 0

Question: What about the “Response Badan Shape” value [2, 4] of the same molecule?
Answer: d^f
